{"source": "patent US20130079286A1", "about": "(Pieris, published 2013)", "binders": {"B1": {"name": "Lcn2 mutein H1GV (designed binder)", "chain": "QDSTSDLIPAPPLSKVPLQQNFQDNQFHGKWYVVGVAGNVLLREDKDPLKMYATIYELKEDKSYNVTSVGFDDKKCLYKIRTFVPGSQPGEFTLGRIKSEPGGTSWLVRVVSTNYNQHAMVFFKEVAQNRETFNITLYGRTKELTSELKENFIRFSKSLGLPENHIVFPVPIDQCIDG", "notes": "H1-G1 with Cys36 replaced by Val"}, "B2": {"name": "Lcn2 mutein H1GA (designed binder)", "chain": "B1 chain with V36A", "notes": "H1-G1 with Cys36 replaced by Ala"}, "B3": {"name": "Lcn2 mutein N9B (designed binder)", "chain": "QDSTSDLIPAPPLSKVPLQQNFQDNQFHGKWYVVGRAGNMRLREDKDPAKMVATIYELKEDKSYNVTKVMFQRKKCKYMINTFVPGSQPGEFTLGAIKSPPGPTSTLVRVVSTNYNQHAMVFFKHVFQNREYFHITLYGRTKELTSELKENFIRFSKSLGLPENHIVFPVPIDQCIDG"}}, "key": {"ovalbumin": {"molecular_target": "T1, ovalbumin (UniProt P01012 2-386)", "T1 sequence (looked up)": "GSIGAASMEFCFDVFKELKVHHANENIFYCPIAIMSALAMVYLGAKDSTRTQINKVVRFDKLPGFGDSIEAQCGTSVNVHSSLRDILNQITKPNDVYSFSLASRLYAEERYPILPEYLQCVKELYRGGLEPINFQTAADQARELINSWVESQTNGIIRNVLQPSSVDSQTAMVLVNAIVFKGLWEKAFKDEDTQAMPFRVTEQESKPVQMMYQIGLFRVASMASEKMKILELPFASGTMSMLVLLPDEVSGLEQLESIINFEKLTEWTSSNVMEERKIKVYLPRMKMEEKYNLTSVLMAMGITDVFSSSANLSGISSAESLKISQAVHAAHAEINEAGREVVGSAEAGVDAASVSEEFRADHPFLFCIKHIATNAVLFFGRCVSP", "experiment": "capture ELISA"}, "MBP-Aβ40 fusion protein [1]": {"molecular_target": "T2, MBP-Aβ40 fusion protein", "T2 construct": "the entry may be a nucleic acid; Biotin-labelled in the capture ELISA, unlabeled in the direct ELISA and SPR; also called MBP-Abeta40", "experiment": "SPR (Biacore X), MBP-Aβ40 amine-coupled (1316 RU), mutein as analyte", "procedure": "(§1) FIG. 20 depicts the kinetic real time analysis of Lcn2 muteins H1GA (A) and H1GV (B) measured on a Biacore X instrument at a flow rate of 20 μl/min. The MBP-Aβ40 fusion protein was coupled via amine chemistry to a CMD 2001 chip (ΔRU=1316) and each of the purified Lcn2 muteins was applied in a series at varying concentrations. The measured signal is shown as a grey line while the curve fit is depicted as a black line in each case.\n(§2) Real time analysis of the interaction between Lcn2 muteins H1GA or H1GV and MBP-Aβ40 (SEQ ID NO: 33) was performed on a Biacore X system using PBS/T (4 mM KH₂PO₄, 16 mM Na₂HPO₄, 115 mM NaCl, pH 7.4 containing 0.005% (v/v) Tween 20) as running buffer. A 15 μg/mL solution of MBP-Aβ40 from Example 2 in 10 mM Na-acetate, pH 4.5 was immobilized onto a CMD 200I chip (Xantec, Düsseldorf, Germany) using standard amine coupling chemistry, resulting in a ligand density of 1316 resonance units (RU). The purified Lcn2 muteins H1GA and H1GV from Example 20 were applied in concentrations ranging from 4 nM to 128 nM at a flow rate of 20 μL/min. The data were double-referenced by subtraction of the corresponding signals measured for the control channel, which had been activated and blocked with ethanolamine, as well as subtraction of the measured signals for an average of buffer injections."}, "[2]": {"molecular_target": "T3, biotinylated Aβ40 peptide (human, C-terminal biotin group attached via a lysine spacer)", "T3 construct": "Synthetic peptide (Peptide Speciality Laboratory) with a C-terminal biotin on a lysine spacer; used in the capture ELISAs", "T3 sequence (peptide, as listed by the source)": "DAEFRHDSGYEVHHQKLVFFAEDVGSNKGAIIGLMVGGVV", "experiment": "capture ELISA: mutein captured via Strep-tag II, biotinylated Aβ40 titrated", "procedure": "(§3) FIG. 19 depicts the binding activity of the Lcn2 muteins H1GA, H1GV, and H1-G1 in capture ELISAs with the biotinylated Aβ targets Aβ40 (A) and Trx-Aβ28 (B). StrepMAB-Immo was immobilized at 10 μg/ml on microtitre plates and employed for capturing of 1 μM Lcn2 muteins via the Strep-tag H. Binding of the biotinylated targets, applied in a dilution series, was then detected by incubation with ExtrAvidin/AP and a subsequent chromogenic reaction with pNPP. […] The data were fitted to a monovalent binding model."}, "Trx-Aβ28 fusion protein": {"molecular_target": "T4, Trx-Aβ28 fusion protein (Escherichia coli (strain K12), UniProt P0AA25 1-76 = thioredoxin, Biotin-labelled through an NHS ester (2:1) in the capture and competitive ELISAs; unlabeled in the direct ELISA and as competitor.)", "T4 construct": "the entry may be a nucleic acid; also called TrxAbeta28H6", "experiment": "capture ELISA: mutein captured via Strep-tag II, biotinylated Trx-Aβ28 titrated", "procedure": "as §3"}, "MBP-Aβ40 fusion protein [3]": {"molecular_target": "T2, MBP-Aβ40 fusion protein", "experiment": "SPR (Biacore X, FIG. 20), MBP-Aβ40 immobilised, H1GV injected; the table marks the row '* dissociation time not sufficiently long'", "procedure": "as §1, §2"}, "[4]": {"molecular_target": "T5, Aβ40 peptide, non-labeled (human)", "T5 construct": "Non-labeled synthetic peptide (W. M. Keck Laboratory); also called Abeta40; amyloid beta peptide", "T5 sequence (peptide, as listed by the source)": "as above", "experiment": "SPR (Biacore T100), Aβ40 amine-coupled on CM5 (325 RU), mutein as analyte", "procedure": "(§4) FIG. 21 depicts the kinetic real time analysis of the Lcn2 mutein H1GA measured on a Biacore T100 instrument with immobilized Aβ40 using an extended dissociation time for a trace measured at high concentration. The target peptide Aβ40 was coupled via amine chemistry onto the Biacore CM5 chip (ΔRU=325), and the purified Lcn2 mutein H1GA was applied at a flow rate of 30 μl/min. For exact determination of the low koff rate, dissociation was performed for 7200 s at the highest concentration tested. kon rates were determined using the dilution series of the Lcn2 mutein H1GA with both association and dissociation times of 300 s.\n(§5) Real time analysis of the interaction between the Lcn2 mutein H1GA and Aβ40 (SEQ ID NO: 29) was performed on a Biacore T100 system (Biacore, Uppsala, Sweden) using PBS/P (4 mM KH₂PO₄, 16 mM Na₂HPO₄, 115 mM NaCl, pH 7.4 containing 0.005% (v/v) Surfactant P20) as running buffer. […] For exact determination of the low koff rate the highest concentration was analysed using a dissociation time of 7200 s. The data were double-referenced as in Example 21. kₒₙ and koff for the binding reaction were determined from the entire data set using Biacore T100 Evaluation Software V2.0.3 for data processing and kinetic fitting. […]"}, "[5]": {"molecular_target": "T5, Aβ40 peptide, non-labeled", "experiment": "SPR (Biacore T100), Aβ40 amine-coupled on CM5 (325 RU), dissociation 7200 s", "procedure": "as §4, §5"}, "MBP-Aβ40 fusion protein [6]": {"molecular_target": "T2, MBP-Aβ40 fusion protein", "experiment": "SPR (Biacore X, FIG. 20), MBP-Aβ40 immobilised, H1GA injected; the table marks the row '* dissociation time not sufficiently long'", "procedure": "as §1, §2"}, "BSA": {"molecular_target": "T6, BSA (bovine, UniProt P02769 25-607)", "T6 construct": "also called bovine serum albumin", "T6 sequence (P02769 25-607 limits assumed)": "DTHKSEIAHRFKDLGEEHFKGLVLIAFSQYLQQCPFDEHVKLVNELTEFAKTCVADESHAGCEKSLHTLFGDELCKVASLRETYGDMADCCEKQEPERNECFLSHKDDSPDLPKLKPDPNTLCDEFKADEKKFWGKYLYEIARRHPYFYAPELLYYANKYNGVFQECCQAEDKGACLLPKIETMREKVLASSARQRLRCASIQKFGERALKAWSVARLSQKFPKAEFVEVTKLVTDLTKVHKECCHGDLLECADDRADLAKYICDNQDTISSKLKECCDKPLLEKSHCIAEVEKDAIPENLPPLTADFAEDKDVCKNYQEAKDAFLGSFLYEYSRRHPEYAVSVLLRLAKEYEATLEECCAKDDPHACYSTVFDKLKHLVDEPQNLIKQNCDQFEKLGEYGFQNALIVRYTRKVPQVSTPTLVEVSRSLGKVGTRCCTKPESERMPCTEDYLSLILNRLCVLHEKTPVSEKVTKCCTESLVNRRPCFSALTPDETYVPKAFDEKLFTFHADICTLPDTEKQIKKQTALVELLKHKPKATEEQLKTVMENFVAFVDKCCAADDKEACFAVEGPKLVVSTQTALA", "experiment": "ELISA on coated protein"}, "[7]": {"molecular_target": "T7, recombinant human fibronectin fragment FN789 (human, UniProt P02751 1173-1539)", "T7 construct": "the entry may be a nucleic acid", "T7 sequence (P02751 other isoform, or with tags, fused parts or gaps limits assumed)": "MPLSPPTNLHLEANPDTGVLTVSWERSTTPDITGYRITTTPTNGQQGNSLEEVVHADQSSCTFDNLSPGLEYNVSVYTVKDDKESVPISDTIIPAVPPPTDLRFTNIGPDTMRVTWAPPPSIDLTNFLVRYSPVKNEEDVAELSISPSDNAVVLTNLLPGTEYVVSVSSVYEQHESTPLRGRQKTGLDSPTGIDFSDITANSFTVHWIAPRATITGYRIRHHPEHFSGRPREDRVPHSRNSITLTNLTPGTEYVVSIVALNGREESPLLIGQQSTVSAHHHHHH", "experiment": "ELISA on coated protein"}, "[8]": {"molecular_target": "T8, recombinant human fibronectin fragment FN7B8 (human, UniProt P02751 1173-1448)", "T8 construct": "no separate number is printed for the protein, so the entry may be a nucleic acid", "T8 sequence (P02751 other isoform, or with tags, fused parts or gaps limits assumed)": "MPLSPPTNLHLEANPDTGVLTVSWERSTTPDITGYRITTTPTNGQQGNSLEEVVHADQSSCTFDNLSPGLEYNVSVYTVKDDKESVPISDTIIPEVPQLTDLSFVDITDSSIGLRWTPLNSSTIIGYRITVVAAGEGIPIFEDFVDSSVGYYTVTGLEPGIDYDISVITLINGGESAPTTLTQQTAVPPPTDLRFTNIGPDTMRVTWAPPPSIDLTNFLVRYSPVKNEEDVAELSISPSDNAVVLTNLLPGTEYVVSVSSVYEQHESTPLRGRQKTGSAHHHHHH", "experiment": "ELISA: FN7B8 coated, mutein titrated, detected via Strep-tag II"}, "[9]": {"molecular_target": "T9, recombinant fibronectin single domain ED-B (human)", "T9 construct": "the entry may be a nucleic acid; also called extra domain-B; extra-domain B", "T9 sequence (chain, as listed by the source limits assumed)": "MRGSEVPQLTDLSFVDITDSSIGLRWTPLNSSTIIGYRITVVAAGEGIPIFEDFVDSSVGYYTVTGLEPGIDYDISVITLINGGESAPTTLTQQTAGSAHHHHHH", "experiment": "SPR (BIAcore X), ED-B amine-coupled (about 180 RU), mutein as analyte", "procedure": "(§6) FIG. 27 depicts the kinetic real time analysis of Lcn2 variants N7A (A), N7E (B), N9B (C) and N10D (D) measured on a Biacore X instrument. The single fibronectin domain ED-B was coupled via amine chemistry to a CMD 200 m sensor chip (ΔRU=180) and the purified Lcn2 variants were applied at varying concentrations. The measured signals are shown as traces together with the curve fits.\n(§7) Real time interaction analysis of Lcn2 muteins was performed on a BIAcore X instrument using HBS/ET (20 mM Hepes, pH 7.5, 150 mM NaCl, 1 mM EDTA containing 0.005% (v/v) Tween 20) as running buffer. 100 μg/ml solution of recombinant ED-B in 10 mM Na-acetate, pH 4.0 was immobilized on a CMD 200 m Sensorchip using standard amine coupling chemistry, resulting in a ligand density of about 180 resonance units (RU). The purified Lcn2 mutein was applied at a flow rate of 25 μl/min at concentrations of 2.5 up to 160 nM. The sensorgrams were corrected by subtraction of the corresponding signals measured for the control channel, which had been activated and blocked with ethanolamine. […] In the case of N10D the heterogeneous analyte competing reaction model was used for data fitting, resulting in two sets of kinetic constants."}, "[10]": {"molecular_target": "T8, recombinant human fibronectin fragment …", "experiment": "SPR (BIAcore X), FN7B8 amine-coupled (about 500 RU), mutein as analyte", "excerpt": "(§8) FIG. 13 depicts the kinetic real time analysis of Lcn2 mutein N9B measured on a Biacore instrument. FN7B8 was coupled via amine chemistry to a CMD 200 m sensor chip (ΔRU=500) and the purified Lcn2 mutein was applied at varying concentrations. The measured signal is shown as a grey line whereas the curve fit is depicted as a black line in each case.\nas §8, with “14” for “13”, “N7E” for “N9B”\nReal time analysis of Lcn2 muteins was performed on a BIAcore X system (BIAcore, Uppsala, Sweden) using HBS/ET (20 mM Hepes, pH 7.5, 150 mM NaCl, 1 mM EDTA containing 0.005% (v/v) Tween 20) as running buffer. 200 μg/ml solution of recombinant FN7B8 in 10 mM Na-acetate, pH 4.0 was immobilized on a CMD 200 m Sensorchip (XanTec bioanalytics, Duesseldorf, Germany) using standard amine coupling chemistry (Biacore, Uppsala, Sweden), resulting in a ligand density of about 500 resonance units (RU). The purified Lcn2 mutein was applied at a flow rate of 25 μl/min at concentrations of 2.5 up to 160 nM. The sensorgrams were corrected by subtraction of the corresponding signals measured for the control channel, which had been activated and blocked with ethanolamine."}, "[11]": {"molecular_target": "T9, recombinant fibronectin single domain …", "experiment": "SPR (BIAcore X), ED-B immobilised by amine coupling, Lcn2 mutein injected at 0 to 80 nM, 1:1 model", "procedure": "as §6\nas §7, with “The purified Lcn2 mutein was applied at a flow rate of 25 μl/min at concentrations of 2.5 up to 160 nM.” left out"}}, "note": "Substitutions are numbered along the chain they refer to. In names and notes the source's numbering stands.", "data": [{"binder": "B1", "values": [{"measurement": "binding result", "setting": "ovalbumin", "result": "no binding"}, {"measurement": "Kd", "setting": "MBP-Aβ40 fusion protein [1]", "result": 1.06, "unit": "nM"}, {"measurement": "koff", "setting": "MBP-Aβ40 fusion protein [1]", "result": "7.26e-05", "unit": "s⁻¹"}, {"measurement": "kon", "setting": "MBP-Aβ40 fusion protein [1]", "result": 68400, "unit": "M⁻¹ s⁻¹"}, {"measurement": "Kd", "setting": "[2]", "result": 4.9, "unit": "nM"}, {"measurement": "Kd", "setting": "Trx-Aβ28 fusion protein", "result": 4.2, "unit": "nM"}, {"measurement": "Kd", "setting": "MBP-Aβ40 fusion protein [3]", "result": 1.1, "unit": "nM"}]}, {"binder": "B2", "values": [{"measurement": "binding result", "setting": "ovalbumin", "result": "no binding"}, {"measurement": "Kd", "setting": "MBP-Aβ40 fusion protein [1]", "result": 0.476, "unit": "nM"}, {"measurement": "koff", "setting": "MBP-Aβ40 fusion protein [1]", "result": "2.75e-05", "unit": "s⁻¹"}, {"measurement": "kon", "setting": "MBP-Aβ40 fusion protein [1]", "result": 57700, "unit": "M⁻¹ s⁻¹"}, {"measurement": "Kd", "setting": "[4]", "result": 0.095, "unit": "nM"}, {"measurement": "kon", "setting": "[4]", "result": 125000, "unit": "M⁻¹ s⁻¹"}, {"measurement": "koff", "setting": "[5]", "result": "1.18e-05", "unit": "s⁻¹"}, {"measurement": "Kd", "setting": "[2]", "result": 4.2, "unit": "nM"}, {"measurement": "Kd", "setting": "Trx-Aβ28 fusion protein", "result": 3.8, "unit": "nM"}, {"measurement": "Kd", "setting": "MBP-Aβ40 fusion protein [6]", "result": 0.48, "unit": "nM"}]}, {"binder": "B3", "values": [{"measurement": "binding result", "setting": "BSA", "result": "no binding"}, {"measurement": "binding result", "setting": "[7]", "result": "no binding"}, {"measurement": "Kd", "setting": "[8]", "result": 40.1, "unit": "nM"}, {"measurement": "Kd", "setting": "[9]", "result": 5.26, "unit": "nM"}, {"measurement": "koff", "setting": "[9]", "result": 0.00762, "unit": "s⁻¹"}, {"measurement": "kon", "setting": "[9]", "result": "1.45e+06", "unit": "M⁻¹ s⁻¹"}, {"measurement": "Kd", "setting": "[10]", "result": 36, "unit": "nM"}, {"measurement": "koff", "setting": "[10]", "result": 0.075, "unit": "s⁻¹"}, {"measurement": "kon", "setting": "[10]", "result": "2.1e+06", "unit": "M⁻¹ s⁻¹"}, {"measurement": "Kd", "setting": "[11]", "result": 5.3, "unit": "nM"}]}]}
